According to IntAct's records for PubMed 19446522:

B1: "Na(+)/H(+) exchange regulatory cofactor NHE-RF1" (Homo sapiens), O14745 (parent)
chain: MSADAAAGAPLPRLCCLEKGPNGYGFHLHGEKGKLGQYIRLVEPGSPAEKAGLLAGDRLVEVNGENVEKETHQQVVSRIRAALNAVRLLVVDPETDEQLQKLGVQVREELLRAQEAPGQAEPPAAAEVQGAGNENEPREADKSHPEQRELRPRLCTMKKGPSGYGFNLHSDKSKPGQFIRSVDPDSPAEASGLRAQDRIVEVNGVCMEGKQHGDVVSAIRAGGDETKLLVVDRETDEFFKKCRVIPSQEHLNGPLPVPFTNGEIQKENSREALAEAALESPRPALVRSASSDTSEELNSQDSPPKQDSTAPSSTSSSDPILDFNISLAMAKERAHQKRSSKRAPQMDWSKKNELFSNL

Variants of: B1
Settings: with CFTR

Question: How did the “effect of a mutation on the interaction” value turn out when E353A was run?
Answer: The value was “decreasing interaction”.
